This note sets out measurements from patent US20230203199A1 (published 2023).

The target of this assay is T1, hCD20 on transfected Expi293 cells (human, UniProt P11836 1-297).
T1 construct: whole, on cells
T1 sequence (looked up): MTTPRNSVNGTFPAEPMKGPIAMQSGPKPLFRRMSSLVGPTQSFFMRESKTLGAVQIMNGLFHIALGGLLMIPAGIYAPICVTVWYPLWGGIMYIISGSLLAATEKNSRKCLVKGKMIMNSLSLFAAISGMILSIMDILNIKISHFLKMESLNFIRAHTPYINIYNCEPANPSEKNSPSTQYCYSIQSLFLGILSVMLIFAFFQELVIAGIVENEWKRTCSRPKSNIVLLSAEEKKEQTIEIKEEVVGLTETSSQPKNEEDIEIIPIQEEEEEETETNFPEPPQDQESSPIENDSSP
Kind of assay: flow cytometry on Expi293 cells transfected with hCD20, anti-human Fc PE detection. (In general: A flow cytometer gives signals particle by particle.)

Method: Expi293 cells transfected hCD20 were seeded in 96 U-bottom plate at 1×10e5 cells/well. The TASER antibody or human IgG1 isotype control were added at final concentration 1-10 μg/ml and incubated on ice or at 4° C. for 20-30 minutes. […] Stained cells were analyzed by flow cytometry and the binding ability were presented as PE positive population among total live cells.

B1: MX846 (bispecific antibody)
chain 1: not shown
chain 2: QAVVTQEPSLTVSPGGTVTLTCGSSTGAVTTSNYANWVQEKPGQAFRGLIGGTNKRAPGTPARFSGSLLGGKAALTLSGAQPEDEAEYYCALWYSNLWVFGGGTKLTVLGGSGGDIVMTQTPLSLPVTPGEPASISCRSSKSLLHSNGITYLYWYLQKPGQSPQLLIYQMSNLVSGVPDRFSGSGSGTDFTLKISRVEAEDVGVYYCAQNLELPYTFGGGTKVEIKGSGGSAGSGSGGGGSASGSGQVQLVQSGAEVKKPGSSVKVSCKASGYAFSYSWINWVRQAPGQGLEWMGRIFPGDGDTDYNGKFKGRVTITADKSTSTAYMELSSLRSEDTAVYYCARNVFDGYWLVYWGQGTLVTVSSGGSGGEVQLLESGGGLVQPGGSLRLSCAASGFTFSTYAMNWVRQAPGKGLEWVSRIRSKYNNYATYYADSVKGRFTISRDDSKNTLYLQMNSLRAEDTAVYYCVRHGNFGNSYVSWFAYWGQGTLVTVSSASGGSGDKTHTCPPCPAPEAAGGPSVFLFPPKPKDTLMISRTPEVTCVVVDVSHEDPEVKFNWYVDGVEVHNAKTKPREEQYNSTYRVVSVLTVLHQDWLNGKEYKCKVSNKALAAPIEKTISKAKGQPREPQVCTLPPSRDELTKNQVSLSCAVKGFYPSDIAVEWESNGQPENNYKTTPPVLDSDGSFFLVSKLTVDKSRWQQGNVFSCSVMHEALHNHYTQKSLSLSPG
Take B1: the binding result is “binds”.
